Paper PMC11479938

Target: SerRS (full-length human seryl-tRNA synthetase) (human) (UniProt P49591)
Sequence (P49591 whole entry): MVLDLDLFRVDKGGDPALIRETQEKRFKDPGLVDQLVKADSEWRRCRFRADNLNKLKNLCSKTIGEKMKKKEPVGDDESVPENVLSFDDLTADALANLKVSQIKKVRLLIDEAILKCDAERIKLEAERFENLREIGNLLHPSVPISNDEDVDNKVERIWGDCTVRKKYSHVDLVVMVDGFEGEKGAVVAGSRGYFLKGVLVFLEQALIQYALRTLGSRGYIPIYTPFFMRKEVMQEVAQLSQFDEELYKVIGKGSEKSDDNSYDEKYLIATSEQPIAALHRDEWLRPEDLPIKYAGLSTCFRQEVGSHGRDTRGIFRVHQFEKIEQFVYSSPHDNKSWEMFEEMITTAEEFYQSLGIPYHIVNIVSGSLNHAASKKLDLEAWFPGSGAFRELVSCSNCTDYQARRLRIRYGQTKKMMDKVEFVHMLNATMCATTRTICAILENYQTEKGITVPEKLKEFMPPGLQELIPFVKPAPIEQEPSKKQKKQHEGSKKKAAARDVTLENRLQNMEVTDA

“METTL6 (full-length human m^3C tRNA methyltransferase) (from UniProt Q8TCB7 1-284) (enzyme)” was tested, and the in vitro methyltransferase activity of METTL6 on tRNA^SerUGA after adding SerRS (^3H-SAM incorporation) was 1000 fold.
